Experimental data as given in patent publication US20030186322A1 (Scripps Research, published 2003).

B1: 21H3 phage Fv (VH-(Gly4Ser)-pVII / VL-(Gly4Ser)-pIX heterodimer displayed on phage) (other)
VH: MAEVQLLEVQLQQSGPVLVKPGGSVKMSCKASEYTLTSYLFQWVKQKSGQGLEWIGYIYPYNGGTRYNEKFRGKATLTSDKSSNTAYLELSSLTSEDSAVYYCARSSMSDPGANWGPGTLVTVSGGGGSGMEQVADFDTIYQAMIQISVVLCFALGIIAGGQR
VL: DIQMTQSPSSLSASLGERVSLTCRASQEISGYLYWLQQKPDGTIKRLIYAASTLDSGVPKRFSGSRSGSDYSLTISSLESEDFADYYCLQYASYPRTFGGGTKVEIKRADSGGGGSMSVLVYSFASFVLGWCLRSGITYFTRLMETSS
notes: also called 21H3 phage antibody; 21H3-VHVL
B2: 2H6 phage Fv (VH-(Gly4Ser)-pVII / VL-(Gly4Ser)-pIX heterodimer displayed on phage) (other)
VH: MAEVQLLEEVNLVESGGGLVKPGGSLKLSCAASGFTFSSYAMSWVRQTPEKRLEWVASINNGGKIYYPDSVKGRFTISRDNARNILYLQMSSLRSEDTAMYYCVKRDSSVYDYAMDNWGQGTSVTVSSGGGGSGMEQVADFDTIYQAMIQISVVLCFALGIIAGGQR
VL: VLTQSPAIMYASPGEKVTITCSASSSVSYMHWFQQKPGTSPKLWIYSTSKLASGVPARFSGSGSGTSYSLTISRMEAEDVATYYCQQRSSYTVTFGAGTKLELKRTSGGGGSMSVLVYSFASFVLGWCLRSGITYFTRLMETSS
notes: also called 2H6 phage antibody; 2H6-VHVL
B3: 92H2 phage Fv (VH-(Gly4Ser)-pVII / VL-(Gly4Ser)-pIX heterodimer displayed on phage) (other)
VH: MAEVQLQQSGPELKKPGETVKISCKTSGYSFTNYGMNWVKQAPGKGLKWMGWINTYTGEPTYADDFRGRFAFSLATSASTAYLQIINLKNEDTATYFCETYDSPLGDYWGQGTTVTVSSSSGGGGSGMEQVADFDTIYQAMIQISVVLCFALGIIAGGQR
VL: DIGLTQSPASLAVSLGQRATISCRASKSVSTSGYNYMHWYQQKPGQPPKLLIYLASNLASGVPARFSGSGSGTDFTLNIHPVEEEDAATYYCLYSREFPPWTFGGGTKLEIKRSGGGGSMSVLVYSFASFVLGWCLRSGITYFTRLMETSS
notes: also called 92H2 phage antibody; 92H2-VHVL

target: T1, BSA (bovine serum albumin) (bovine, UniProt P02769 25-607); assay: phage ELISA
T1 construct: Carrier protein without hapten; also called BSA-gold complex
Experimental: The supernatant of the phage culture described above was directly used for ELISA. Microtiter wells (Corning) were coated with 25 μl of 10 μg/ml mouse anti-Flag antibody to assay Flag constructs with pVII/pIX, with PCP-BSA for 21H3 and 2H6 constructs, and with the cocaine conjugate GNC—BSA to assay the 92H2 construct. The coated plates were then incubated at room temperature overnight and blocked with 50 μl of Blotto (4% skim milk powder in PBS). Typically, 25 μl of phage supernatant was added and the plate was incubated at 37 C. for 1 hr. After washing, 25 μl of 1/1000 dilution of horseradish peroxidase/anti-M13 conjugate (Pharmacia) in Blotto was added and incubated at 37 C. for 30 minutes. The plate was extensively washed three times with PBS/0.1% tween-20 and pipetted vigorously up and down to remove nonspecific binding phage. The plate was then developed with TMB (3,3′,5,5′-tetramethylbenzidine) substrate (Pierce) and quenched with an equal volume of 2 M H₂SO₄. The absorbance of each reaction was then read on an ELISA Plate reader at 450 nM.

T1 sequence (P02769 25-607 limits assumed): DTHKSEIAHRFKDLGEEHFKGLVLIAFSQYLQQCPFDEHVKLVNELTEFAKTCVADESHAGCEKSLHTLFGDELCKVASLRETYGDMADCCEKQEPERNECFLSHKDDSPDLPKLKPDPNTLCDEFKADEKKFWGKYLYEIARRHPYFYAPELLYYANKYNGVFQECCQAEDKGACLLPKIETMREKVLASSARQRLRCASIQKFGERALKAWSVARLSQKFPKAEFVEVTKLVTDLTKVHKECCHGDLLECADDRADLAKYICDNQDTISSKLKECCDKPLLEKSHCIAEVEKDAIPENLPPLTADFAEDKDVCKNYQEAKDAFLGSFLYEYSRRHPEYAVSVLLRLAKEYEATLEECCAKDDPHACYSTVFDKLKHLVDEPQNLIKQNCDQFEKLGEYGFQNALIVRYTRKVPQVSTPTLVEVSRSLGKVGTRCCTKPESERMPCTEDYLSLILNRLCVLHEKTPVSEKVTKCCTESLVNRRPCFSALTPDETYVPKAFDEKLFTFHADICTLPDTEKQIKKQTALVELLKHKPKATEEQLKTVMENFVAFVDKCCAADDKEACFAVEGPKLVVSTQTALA

Binder	binding result
B1	no binding
B2	no binding
B3	no binding
